For 1 substance, Kd results are on record in article PMC11284791.

Assay [1] concerns the target Triosephosphate isomerase from G. gallus (G. gallus) (UniProt P00940). In words: NMR titration; 2.5 μM [U-15N]-TPI with 1 mM GAP, titrated with 0-30 μM ribosomes; integrated amide proton envelope (6.30-10.54 ppm) of 1H-15N HSQC; 10 mM sodium phosphate pH 7.5, 0.1 M NaCl, 290 K; apparent Kd from the total binding equation with a nonspecific term; the paper calls it an upper limit to Kd.

For assay [2] the target is unchanged. The assay is described as follows: NMR titration; 2.5 μM [U-15N]-TPI with 5 mM DHAP, titrated with 0-30 μM ribosomes; integrated amide proton envelope (6.30-10.54 ppm) of 1H-15N HSQC; 10 mM sodium phosphate pH 7.5, 0.1 M NaCl, 290 K; apparent Kd from the total binding equation with a nonspecific term; the paper calls it an upper limit to Kd.

pKd: −log10 of the molar value.

Triosephosphate isomerase from G. gallus (G. gallus), sequence (P00940 whole entry): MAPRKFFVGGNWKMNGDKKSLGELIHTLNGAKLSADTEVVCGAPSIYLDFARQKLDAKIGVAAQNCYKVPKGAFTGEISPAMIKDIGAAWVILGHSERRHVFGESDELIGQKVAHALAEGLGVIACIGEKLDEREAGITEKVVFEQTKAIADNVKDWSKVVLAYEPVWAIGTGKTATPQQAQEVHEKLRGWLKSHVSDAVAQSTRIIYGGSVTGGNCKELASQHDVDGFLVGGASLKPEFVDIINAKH

“Intact 70S ribosomes from E. coli MRE600 (from UniProt P0A7K2 1-121; P0A7R1 1-149; P0A7J3 1-165; P0A7J7 1-142; P02413 1-144; P0C018 1-117; P0A7L3 1-118; P61175 1-110; P0AG67 1-557; P02358 1-135; P0A7W7 1-130; P0A7R9 1-129) (complex)”: the pKd in assay [1] is 5.92; in assay [2] it was 5.98.
